According to patent US20230357429A1 (JANUX THERAPEUTICS, published 2023):
Values belong to the binder of their own block, whether it stands above or below them. Where no end group is shown, it is not given here.

Experiments:
[1] = target: T1, Human TROP2 ECD (31-274 AA), biotinylated (human, UniProt P09758 31-274, biotinylated (site not stated)); assay: ELISA on immobilized TROP2
T1 construct: also called tumor-associated calcium signal transducer 2; Human TROP2-biotin
T1 sequence: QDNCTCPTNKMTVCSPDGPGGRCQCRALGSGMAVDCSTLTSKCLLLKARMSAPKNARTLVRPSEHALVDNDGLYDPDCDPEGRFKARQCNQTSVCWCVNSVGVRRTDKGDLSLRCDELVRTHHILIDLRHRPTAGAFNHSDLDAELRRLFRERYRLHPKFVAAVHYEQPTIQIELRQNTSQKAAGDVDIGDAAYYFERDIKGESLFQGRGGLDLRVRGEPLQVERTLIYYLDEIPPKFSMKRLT

[2] = target: T1, Human TROP2 ECD (31-274 AA), …; assay: BLI (Octet), biotinylated human TROP2 ECD on SAX sensor, Fab 6.25-50 nM
[3] = target: T1, Human TROP2 ECD (31-274 AA), …; assay: ELISA: biotinylated TROP2 captured on neutravidin plate, Fab titrated, HRP secondary antibody
[4] = target: T1, Human TROP2 ECD (31-274 AA), …; assay: BLI (Octet), dissociation half-life from biotinylated human TROP2 ECD
[5] = target: T1, Human TROP2 ECD (31-274 AA), …; assay: ELISA, ratio of EC50 to that of TBD-1 wt
[6] = target: T1, Human TROP2 ECD (31-274 AA), …; assay: ELISA, biotinylated TROP2 ECD on neutravidin plate, Fab titrated
[7] = target: T2, TCE-13 (anti-CD3 scFv N103A; anti-TROP2 wt); assay: competition ELISA, TCE on captured CD3
T2 construct: scFv on the Fab heavy chain; also called TCE-13 (N103A)

[8] = target: T3, TCE-10 (anti-CD3 scFv R100A; anti-TROP2 wt); assay: competition ELISA, TCE on captured CD3
T3 construct: scFv on the Fab heavy chain; also called TCE-10 (R100A)

[9] = target: T4, TCE-20 (anti-CD3 scFv S110A; anti-TROP2 wt); assay: competition ELISA, TCE on captured CD3
T4 construct: scFv on the Fab heavy chain; also called TCE-20 (S110A)

[10] = target: T5, TCE-11 (anti-CD3 scFv H101A; anti-TROP2 wt); assay: competition ELISA, TCE on captured CD3
T5 construct: scFv on the Fab heavy chain; also called TCE-11 (H101A)

[11] = target: T6, TCE-14 (anti-CD3 scFv F104A; anti-TROP2 wt); assay: competition ELISA, TCE on captured CD3
T6 construct: scFv on the Fab heavy chain; also called TCE-14 (F104A)

[12] = target: T7, TCE-1 (anti-CD3 scFv wt; anti-TROP2 Fab wt); assay: competition ELISA: peptide titrated and pre-incubated with a constant concentration of TCE-1, binding of TCE-1 to plate-bound biotinylated CD3 detected
T7 construct: anti-CD3 scFv fused to the N-terminus of the anti-TROP2 Fab heavy chain; also called TCE-1 (wt)

[13] = target: T8, TCE-31 (anti-CD3 scFv W238A; anti-TROP2 wt); assay: competition ELISA, TCE on captured CD3
T8 construct: scFv on the Fab heavy chain; also called TCE-31 (W238A)

[14] = target: T9, TCE-33 (anti-CD3 scFv F240A; anti-TROP2 wt); assay: competition ELISA, TCE on captured CD3
T9 construct: scFv on the Fab heavy chain; also called TCE-33 (F240A)

[15] = target: T1, Human TROP2 ECD (31-274 AA), …; assay: ELISA on immobilized TROP2; remark: listed apart in the source

EC50 [1]: 3.18 nM
B2: TCE-3 (bispecific antibody)
light: not shown
heavy: QVQLQQSGSELKKPGASVKVSCKASGYTFTNYGMNWVKQAPGQGLKWMGWINTYTGEPTYTDDFKGRFAFSLDTSVSTAYLQISSLKADDTAVYFCAAGGFGSSYWYFDVWGQGSLVTVSSASTKGPSVFPLAPSSKSTSGGTAALGCLVKDYFPEPVTVSWNSGALTSGVHTFPAVLQSSGLYSLSSVVTVPSSSLGTQTYICNVNHKPSNTKVDKKVEPKSC

Kd [2]: 10.4 nM
EC50 [3]: 4.71 nM
t1/2 [4]: 24 min
Fold shift in EC50 relative to wt [5]: 23.5 fold
EC50 [6]: 4.7 nM
B3: TBD-2 (anti-TROP2 Fab, LC Q89A) (Fab, V domains shown)
VH: QVQLQQSGSELKKPGASVKVSCKASGYTFTNYGMNWVKQAPGQGLKWMGWINTYTGEPTYTDDFKGRFAFSLDTSVSTAYLQISSLKADDTAVYFCARGGFGSSYWYFDVWGQGSLVTVSS
VL: DIQLTQSPSSLSASVGDRVSITCKASQDVSIAVAWYQQKPGKAPKLLIYSASYRYTGVPDRFSGSGSGTDFTLTISSLQPEDFAVYYCAQHYITPLTFGAGTKVEIKR

Kd [2]: 0.7 nM
EC50 [3]: 0.27 nM
t1/2 [4]: 27 min
Fold shift in EC50 relative to wt [5]: 1.5 fold
EC50 [6]: 0.3 nM
B4: TBD-3 (anti-TROP2 Fab, LC Q90A) (Fab, V domains shown)
VH: QVQLQQSGSELKKPGASVKVSCKASGYTFTNYGMNWVKQAPGQGLKWMGWINTYTGEPTYTDDFKGRFAFSLDTSVSTAYLQISSLKADDTAVYFCARGGFGSSYWYFDVWGQGSLVTVSS
VL: DIQLTQSPSSLSASVGDRVSITCKASQDVSIAVAWYQQKPGKAPKLLIYSASYRYTGVPDRFSGSGSGTDFTLTISSLQPEDFAVYYCQAHYITPLTFGAGTKVEIKR

IC50 [7]: 47700 nM
IC50 [8]: 4740 nM
IC50 [9]: 120000 nM
IC50 [10]: 2080 nM
IC50 [11]: 4210 nM
binding result [12]: binds
IC50 [14]: 7460 nM
Binder: GSACLGPEWEVCPY (cysteine pairing not given here; also: biotinylated, site not given here, mask peptide for the CD3 scFv) [Peptide-75]

EC50 [15]: 54.3 nM
B8: PC-26 (bispecific antibody)
light: GGVDFCAIYSWPICKIGGGGSGGLSGRSDAGSPLGLAGSGGSDIQLTQSPSSLSASVGDRVSITCKASQDVSIAVAWYQQKPGKAPKLLIYSASYRYTGVPDRFSGSGSGTDFTLTISSLQPEDFAVYYCQQHYITPLTFGAGTKVEIKRTVAAPSVFIFPPSDEQLKSGTASVVCLLNNFYPREAKVQWKVDNALQSGNSQESVTEQDSKDSTYSLSSTLTLSKADYEKHKVYACEVTHQGLSSPVTKSFNRGEC
heavy: not shown
notes: anti-TROP2 D109A

EC50 [1]: 0.46 nM
EC50 [15]: 0.37 nM
B12: TCE-6 (bispecific antibody)
light: DIQLTQSPSSLSASVGDRVSITCKASQDVSIAVAWYQQKPGKAPKLLIYSASYRYTGVPDRFSGSGSGTDFTLTISSLQPEDFAVYYCQQHYITPLTFGAGTKVEIKRTVAAPSVFIFPPSDEQLKSGTASVVCLLNNFYPREAKVQWKVDNALQSGNSQESVTEQDSKDSTYSLSSTLTLSKADYEKHKVYACEVTHQGLSSPVTKSFNRGEC
heavy: not shown

Further lines, the binder ahead of its results:

B1: PC-15 (bispecific antibody)
light: not shown
heavy: GGVDFCGLYHWPICYQGGGGSGGLSGRSDAGSPLGLAGSGGSQVQLQQSGSELKKPGASVKVSCKASGYTFTNYGMNWVKQAPGQGLKWMGWINTYTGEPTYTDDFKGRFAFSLDTSVSTAYLQISSLKADDTAVYFCARGGFGSSYWYADVWGQGSLVTVSSASTKGPSVFPLAPSSKSTSGGTAALGCLVKDYFPEPVTVSWNSGALTSGVHTFPAVLQSSGLYSLSSVVTVPSSSLGTQTYICNVNHKPSNTKVDKKVEPKSC
notes: anti-TROP2 F108A
EC50 [1]: 363 nM

Binder: GSQCLGPEWEVCPY (cysteine pairing not given here; also: biotinylated, site not given here, mask peptide for the CD3 scFv) [Peptide-66]
IC50 [7]: 21400 nM
IC50 [8]: 13000 nM
IC50 [9]: 721000 nM
IC50 [10]: 2620 nM
IC50 [11]: 7090 nM
binding result [12]: binds
IC50 [13]: 51500 nM
IC50 [14]: 3710 nM

B5: PC-12 (bispecific antibody)
light: GGVDFCGLYHWPICYQGGGGSGGLSGRSDAGSPLGLAGSGGSDIQLTQSPSSLSASVGDRVSITCKASQDVSIAVAWYQQKPGKAPKLLIYSASYRYTGVPDRFSGSGSGTDFTLTISSLQPEDFAVYYCQQHYITPLTFGAGTKVEIKRTVAAPSVFIFPPSDEQLKSGTASVVCLLNNFYPREAKVQWKVDNALQSGNSQESVTEQDSKDSTYSLSSTLTLSKADYEKHKVYACEVTHQGLSSPVTKSFNRGEC
heavy: not shown
notes: anti-TROP2 R98A
EC50 [1]: 352 nM

B6: PC-24 (bispecific antibody)
light: GGVDFCGLYHWPICYQVGGGSGGLSGRSDAGSPLGLAGSGGSDIQLTQSPSSLSASVGDRVSITCKASQDVSIAVAWYQQKPGKAPKLLIYSASYRYTGVPDRFSGSGSGTDFTLTISSLQPEDFAVYYCQQHYITPLTFGAGTKVEIKRTVAAPSVFIFPPSDEQLKSGTASVVCLLNNFYPREAKVQWKVDNALQSGNSQESVTEQDSKDSTYSLSSTLTLSKADYEKHKVYACEVTHQGLSSPVTKSFNRGEC
heavy: not shown
notes: anti-TROP2 D109A
EC50 [15]: 87.5 nM

B7: PC-14 (bispecific antibody)
light: GGVDFCGLYHWPICYQGGGGSGGLSGRSDAGSPLGLAGSGGSDIQLTQSPSSLSASVGDRVSITCKASQDVSIAVAWYQQKPGKAPKLLIYSASYRYTGVPDRFSGSGSGTDFTLTISSLQPEDFAVYYCQQHYITPLTFGAGTKVEIKRTVAAPSVFIFPPSDEQLKSGTASVVCLLNNFYPREAKVQWKVDNALQSGNSQESVTEQDSKDSTYSLSSTLTLSKADYEKHKVYACEVTHQGLSSPVTKSFNRGEC
heavy: not shown
notes: anti-TROP2 F108A
EC50 [1]: 333 nM

B9: PC-22 (bispecific antibody)
light: GGVDFCGLYHWPICYQVGGGSGGLSGRSDAGSPLGLAGSGGSDIQLTQSPSSLSASVGDRVSITCKASQDVSIAVAWYQQKPGKAPKLLIYSASYRYTGVPDRFSGSGSGTDFTLTISSLQPEDFAVYYCQQHYITPLTFGAGTKVEIKRTVAAPSVFIFPPSDEQLKSGTASVVCLLNNFYPREAKVQWKVDNALQSGNSQESVTEQDSKDSTYSLSSTLTLSKADYEKHKVYACEVTHQGLSSPVTKSFNRGEC
heavy: not shown
notes: anti-TROP2 R98A
EC50 [15]: 142 nM

B10: PC-20 (bispecific antibody)
light: GGVDFCALYHWPICYQGGGGSGGLSGRSDAGSPLGLAGSGGSDIQLTQSPSSLSASVGDRVSITCKASQDVSIAVAWYQQKPGKAPKLLIYSASYRYTGVPDRFSGSGSGTDFTLTISSLQPEDFAVYYCQQHYITPLTFGAGTKVEIKRTVAAPSVFIFPPSDEQLKSGTASVVCLLNNFYPREAKVQWKVDNALQSGNSQESVTEQDSKDSTYSLSSTLTLSKADYEKHKVYACEVTHQGLSSPVTKSFNRGEC
heavy: not shown
notes: anti-TROP2 D109A
EC50 [15]: 74.3 nM

B11: PC-16 (bispecific antibody)
light: GGIDFCAIYQWPVCRSGGGGSGGLSGRSDAGSPLGLAGSGGSDIQLTQSPSSLSASVGDRVSITCKASQDVSIAVAWYQQKPGKAPKLLIYSASYRYTGVPDRFSGSGSGTDFTLTISSLQPEDFAVYYCQQHYITPLTFGAGTKVEIKRTVAAPSVFIFPPSDEQLKSGTASVVCLLNNFYPREAKVQWKVDNALQSGNSQESVTEQDSKDSTYSLSSTLTLSKADYEKHKVYACEVTHQGLSSPVTKSFNRGEC
heavy: not shown
notes: anti-TROP2 D109A
EC50 [15]: 69.8 nM
